Source: paper PMC7748142

Molecular target: T1, peroxiredoxin 1 (PRDX1), murine lung fibroblasts (mouse (endogenous in MLFs)), P35700
T1 chain: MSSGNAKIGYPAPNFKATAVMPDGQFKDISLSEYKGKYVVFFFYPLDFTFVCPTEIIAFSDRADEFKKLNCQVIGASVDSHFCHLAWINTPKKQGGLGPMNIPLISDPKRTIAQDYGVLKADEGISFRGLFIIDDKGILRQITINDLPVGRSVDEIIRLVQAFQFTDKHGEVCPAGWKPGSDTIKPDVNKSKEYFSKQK
Assay: non-reducing SDS-PAGE with Western blot; A549 or MLF cells treated with Auranofin (A549: 10 uM, MLF: 2 uM) alone or with KU55933 (10 uM, 1 h pre-treatment); lysed in CHAPS buffer with 100 mM NEM; boiled in non-reducing sample buffer; disulfide-linked dimers
Conditions: remark: other sources report otherwise

B1: peroxiredoxin 1 (PRDX1), murine lung fibroblasts, P35700 1-199 (enzyme)
chain: MSSGNAKIGYPAPNFKATAVMPDGQFKDISLSEYKGKYVVFFFYPLDFTFVCPTEIIAFSDRADEFKKLNCQVIGASVDSHFCHLAWINTPKKQGGLGPMNIPLISDPKRTIAQDYGVLKADEGISFRGLFIIDDKGILRQITINDLPVGRSVDEIIRLVQAFQFTDKHGEVCPAGWKPGSDTIKPDVNKSKEYFSKQK
stoichiometry N: 2
